Values of other authors in patent US20060122098A1, “System for infusing insulin to a subject to imporve impaired total body tissue glucose processing” (priority 2004, published 2006).

Conditions: in vivo

For insulin, the half-life is listed as 5 min.
